Data published in IntAct's records for PubMed 16002617.

B1: Cyclic dof factor 1 (Arabidopsis thaliana (Mouse-ear cress)), Q8W1E3 (parent)
chain: MLETKDPAIKLFGMKIPFPTVLEVADEEEEKNQNKTLTDQSEKDKTLKKPTKILPCPRCNSMETKFCYYNNYNVNQPRHFCKACQRYWTSGGTMRSVPIGAGRRKNKNNSPTSHYHHVTISETNGPVLSFSLGDDQKVSSNRFGNQKLVARIENNDERSNNNTSNGLNCFPGVSWPYTWNPAFYPVYPYWSMPVLSSPVSSSPTSTLGKHSRDEDETVKQKQRNGSVLVPKTLRIDDPNEAAKSSIWTTLGIKNEVMFNGFGSKKEVKLSNKEETETSLVLCANPAALSRSINFHEQM

Variants of: B1
Conditions: with ado3_arath ADO3, Q9C9W9
Chain of ado3_arath ADO3, Q9C9W9 (Q9C9W9 whole entry): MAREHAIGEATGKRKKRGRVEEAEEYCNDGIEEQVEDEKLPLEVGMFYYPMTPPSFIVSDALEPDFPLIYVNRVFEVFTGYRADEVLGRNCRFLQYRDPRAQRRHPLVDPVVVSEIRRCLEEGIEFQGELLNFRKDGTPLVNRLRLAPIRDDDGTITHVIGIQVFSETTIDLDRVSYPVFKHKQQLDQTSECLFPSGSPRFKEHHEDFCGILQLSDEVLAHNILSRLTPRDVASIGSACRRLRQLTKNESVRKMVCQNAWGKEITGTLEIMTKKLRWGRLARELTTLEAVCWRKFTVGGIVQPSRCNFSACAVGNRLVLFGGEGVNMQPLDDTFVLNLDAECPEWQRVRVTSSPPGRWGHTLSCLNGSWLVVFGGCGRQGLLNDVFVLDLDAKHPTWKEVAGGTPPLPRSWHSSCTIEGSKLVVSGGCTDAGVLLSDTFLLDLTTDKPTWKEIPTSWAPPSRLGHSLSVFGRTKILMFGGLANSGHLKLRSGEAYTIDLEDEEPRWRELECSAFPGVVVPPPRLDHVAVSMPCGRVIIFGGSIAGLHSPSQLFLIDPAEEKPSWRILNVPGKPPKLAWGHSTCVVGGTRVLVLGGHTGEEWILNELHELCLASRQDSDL

effect of a mutation on the interaction	Variant
decreasing interaction	MLETKDPAIKLFGMKIPFPTVLEVADEEEEKNQNKTLTDQSEKDKTLKKPTKILPCPRCNSMETKFCYYNNYNVNQPRHFCKACQRYWTSGGTMRSVPIGAGRRKNKNNSPTSHYHHVTISETNGPVLSFSLGDDQKVSSNRFGNQKLVARIENNDERSNNNTSNGLNCFPGVSWPYTWNPAFYPVYPYWSMPVLSSPVSSSPTSTLGKHSRDEDETVKQKQRNGSVLVPKTLRIDDPNEAAKSSIWTTLGIANEVMFNGFGSKKEVKLSNKEETETSLVLCANPAALSRSINFHEQM [K253A]
